Measured values reported in publication PMC11229335, “The translocation activity of Rad54 reduces crossover outcomes during homologous recombination”.

Experiments:
Test in all cases: EMSA; 3 mM MgCl2; 0-50 nM protein, 10 nM DNA; EMSA: 35 mM Tris-Cl pH 7.5, 3 mM MgCl2, 50 mM KCl, 1 mM DTT, 10% glycerol, 30 C, 5 min; curtains: 20 mM Tris-OAc pH 7.5, 50 mM NaCl, 10 mM MgOAc2, 200 ng/ul BSA, 1 mM DTT
Conditions in all cases: protein: recombinant; label: 5'-Atto647N on strand 1; blunt
Rad54 = target: T1, Rad54 (Saccharomyces cerevisiae, UniProt P32863 1-898)
T1 sequence: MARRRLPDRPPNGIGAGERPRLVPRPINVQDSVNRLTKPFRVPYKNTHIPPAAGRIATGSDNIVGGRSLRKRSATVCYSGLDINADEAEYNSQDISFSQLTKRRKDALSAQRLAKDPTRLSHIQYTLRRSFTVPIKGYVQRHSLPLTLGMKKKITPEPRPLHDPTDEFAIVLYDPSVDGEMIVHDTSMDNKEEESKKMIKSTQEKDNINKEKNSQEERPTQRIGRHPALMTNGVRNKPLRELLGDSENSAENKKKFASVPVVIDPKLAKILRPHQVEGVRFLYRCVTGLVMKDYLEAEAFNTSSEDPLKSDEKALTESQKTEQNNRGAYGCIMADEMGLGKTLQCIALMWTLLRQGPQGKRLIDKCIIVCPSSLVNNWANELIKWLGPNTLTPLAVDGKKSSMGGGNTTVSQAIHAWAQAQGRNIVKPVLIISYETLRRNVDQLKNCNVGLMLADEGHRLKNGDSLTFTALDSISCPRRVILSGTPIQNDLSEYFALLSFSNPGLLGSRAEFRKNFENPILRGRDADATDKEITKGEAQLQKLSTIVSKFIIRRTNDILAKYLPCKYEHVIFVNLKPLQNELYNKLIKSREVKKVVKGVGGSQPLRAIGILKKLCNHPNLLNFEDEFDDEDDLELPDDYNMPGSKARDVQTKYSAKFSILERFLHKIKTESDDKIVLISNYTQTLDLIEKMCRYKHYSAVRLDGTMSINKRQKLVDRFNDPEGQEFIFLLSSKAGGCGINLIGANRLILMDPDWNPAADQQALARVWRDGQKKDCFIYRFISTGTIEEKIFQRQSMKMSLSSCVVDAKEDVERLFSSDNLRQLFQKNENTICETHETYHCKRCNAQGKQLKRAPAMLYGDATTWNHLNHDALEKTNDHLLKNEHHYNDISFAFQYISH

Rad54 R272Q = target: T2, Rad54 R272Q (Saccharomyces cerevisiae, UniProt P32863 1-898, R272Q)
T2 sequence: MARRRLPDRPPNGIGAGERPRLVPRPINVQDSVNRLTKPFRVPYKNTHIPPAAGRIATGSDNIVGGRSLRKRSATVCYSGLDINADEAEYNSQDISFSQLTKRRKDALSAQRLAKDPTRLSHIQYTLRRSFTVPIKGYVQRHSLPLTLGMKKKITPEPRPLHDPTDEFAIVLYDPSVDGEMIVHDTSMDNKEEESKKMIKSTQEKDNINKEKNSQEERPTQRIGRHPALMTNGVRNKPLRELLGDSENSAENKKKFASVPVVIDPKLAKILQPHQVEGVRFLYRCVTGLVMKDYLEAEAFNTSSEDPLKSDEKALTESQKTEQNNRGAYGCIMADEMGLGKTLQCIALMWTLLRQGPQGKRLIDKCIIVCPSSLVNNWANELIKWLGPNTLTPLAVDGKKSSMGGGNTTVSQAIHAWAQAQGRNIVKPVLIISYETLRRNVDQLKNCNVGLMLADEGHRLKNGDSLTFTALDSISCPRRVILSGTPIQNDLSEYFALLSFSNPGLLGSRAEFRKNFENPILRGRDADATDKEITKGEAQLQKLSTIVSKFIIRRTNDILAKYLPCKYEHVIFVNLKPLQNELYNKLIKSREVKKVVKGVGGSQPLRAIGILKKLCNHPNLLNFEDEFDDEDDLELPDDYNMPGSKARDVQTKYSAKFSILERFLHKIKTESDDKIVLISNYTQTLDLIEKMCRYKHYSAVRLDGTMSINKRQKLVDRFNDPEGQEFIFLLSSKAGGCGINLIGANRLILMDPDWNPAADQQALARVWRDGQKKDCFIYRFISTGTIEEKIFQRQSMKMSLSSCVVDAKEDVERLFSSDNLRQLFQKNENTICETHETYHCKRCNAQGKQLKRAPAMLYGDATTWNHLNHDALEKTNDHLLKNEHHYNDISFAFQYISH

Rad54 R272A = target: T3, Rad54 R272A (Saccharomyces cerevisiae, UniProt P32863 1-898, R272A)
T3 sequence: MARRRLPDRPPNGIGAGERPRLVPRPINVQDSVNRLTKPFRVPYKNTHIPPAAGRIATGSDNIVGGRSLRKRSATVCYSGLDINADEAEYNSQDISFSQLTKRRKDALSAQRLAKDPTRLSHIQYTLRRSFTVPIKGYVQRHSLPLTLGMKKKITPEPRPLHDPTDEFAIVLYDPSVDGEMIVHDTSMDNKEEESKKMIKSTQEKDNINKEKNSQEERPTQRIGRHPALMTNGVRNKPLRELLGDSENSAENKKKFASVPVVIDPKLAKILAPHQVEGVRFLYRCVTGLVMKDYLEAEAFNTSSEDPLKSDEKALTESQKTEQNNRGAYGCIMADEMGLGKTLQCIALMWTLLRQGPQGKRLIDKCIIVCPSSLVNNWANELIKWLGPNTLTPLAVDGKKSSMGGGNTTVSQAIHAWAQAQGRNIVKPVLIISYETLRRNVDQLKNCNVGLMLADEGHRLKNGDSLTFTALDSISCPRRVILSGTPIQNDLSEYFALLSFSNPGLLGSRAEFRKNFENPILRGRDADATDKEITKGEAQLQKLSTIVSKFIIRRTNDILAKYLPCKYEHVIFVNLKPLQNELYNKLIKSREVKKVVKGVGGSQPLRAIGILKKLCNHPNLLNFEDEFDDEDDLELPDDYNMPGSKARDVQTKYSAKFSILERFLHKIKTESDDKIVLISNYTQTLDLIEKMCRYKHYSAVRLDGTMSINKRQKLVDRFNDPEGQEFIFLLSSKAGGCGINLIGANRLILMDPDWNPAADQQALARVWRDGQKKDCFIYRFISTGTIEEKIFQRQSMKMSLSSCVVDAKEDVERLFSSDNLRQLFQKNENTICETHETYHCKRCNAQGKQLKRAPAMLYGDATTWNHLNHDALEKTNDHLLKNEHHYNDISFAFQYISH

Measured: binding result

B1: 90-mer EMSA dsDNA (dsDNA)
DNA 1: TGTAAAACGACGGCCAGTGAATTCGAGCTCGGTACCCGGGGATCCTCTAGAGTCGACCTGCAGGCATGCAAGCTTGGCGTAATCATGGTC
DNA 2: GACCATGATTACGCCAAGCTTGCATGCCTGCAGGTCGACTCTAGAGGATCCCCGGGTACCGAGCTCGAATTCACTGGCCGTCGTTTTACA
binds: Rad54 | Rad54 R272Q | Rad54 R272A
